This test relates to Flag-RAI-3. Briefly: Anti-FLAG immunoprecipitation and anti-phosphotyrosine Western blot of A549 cells transiently transfected with Flag-RAI-3. Format: cell-based, human. The note with it: CS-160 1 to 3 hours, EGF 10 nM. The method, then: FIGS. 26A and 26B illustrate the results of Western Blot analysis of an A549 cell line (Human Lung Carcinoma CCL-185, American Type Culture Collection, Manassas, Va.) transiently transfected with a FLAG RAI-3 construct (described herein). Media on the cells was changed to serum-free and 48 hours port-transfection the cells were treated with cigarette smoke-bubbled media (i.e., CS-160, the equivalent of 160 cigarettes per 500 ml of cell medium) for the periods of time shown (1 hr., 2 hr., and 3 hr.) and with EGF (10 nM) for 5 minutes. Lysates were immuno-precipitated with 2 μg of anti-FLAG M2 antibody (Catalog # F-3165, Sigma, Saint Louis, Mo.) and 40 μl of Protein A. The Protein A/lysate/antibody mixture was washed, aspirated “dry”, and 60 μl of 2×SDS-PAGE sample buffer was added. After heating at 95° C. for 10 minutes, the samples were loaded onto two 4-20% gradient gels, resolved by SDS-PAGE and transferred to nitrocellulose by standard Western Blotting techniques.
The A549 cell line (American Type Culture Collection, Manassas, Va.) was plated in 100 mm petri dishes and transfected at about 75% confluency. […]

B1: epidermal growth factor (protein, UniProt P01133 23-1207, looked up)
Pro-epidermal growth factor: PQHWSCPEGTLAGNGNSTCVGPAPFLIFSHGNSIFRIDTEGTNYEQLVVDAGVSVIMDFHYNEKRIYWVDLERQLLQRVFLNGSRQERVCNIEKNVSGMAINWINEEVIWSNQQEGIITVTDMKGNNSHILLSALKYPANVAVDPVERFIFWSSEVAGSLYRADLDGVGVKALLETSEKITAVSLDVLDKRLFWIQYNREGSNSLICSCDYDGGSVHISKHPTQHNLFAMSLFGDRIFYSTWKMKTIWIANKHTGKDMVRINLHSSFVPLGELKVVHPLAQPKAEDDTWEPEQKLCKLRKGNCSSTVCGQDLQSHLCMCAEGYALSRDRKYCEDVNECAFWNHGCTLGCKNTPGSYYCTCPVGFVLLPDGKRCHQLVSCPRNVSECSHDCVLTSEGPLCFCPEGSVLERDGKTCSGCSSPDNGGCSQLCVPLSPVSWECDCFPGYDLQLDEKSCAASGPQPFLLFANSQDIRHMHFDGTDYGTLLSQQMGMVYALDHDPVENKIYFAHTALKWIERANMDGSQRERLIEEGVDVPEGLAVDWIGRRFYWTDRGKSLIGRSDLNGKRSKIITKENISQPRGIAVHPMAKRLFWTDTGINPRIESSSLQGLGRLVIASSDLIWPSGITIDFLTDKLYWCDAKQSVIEMANLDGSKRRRLTQNDVGHPFAVAVFEDYVWFSDWAMPSVMRVNKRTGKDRVRLQGSMLKPSSLVVVHPLAKPGADPCLYQNGGCEHICKKRLGTAWCSCREGFMKASDGKTCLALDGHQLLAGGEVDLKNQVTPLDILSKTRVSEDNITESQHMLVAEIMVSDQDDCAPVGCSMYARCISEGEDATCQCLKGFAGDGKLCSDIDECEMGVPVCPPASSKCINTEGGYVCRCSEGYQGDGIHCLDIDECQLGEHSCGENASCTNTEGGYTCMCAGRLSEPGLICPDSTPPPHLREDDHHYSVRNSDSECPLSHDGYCLHDGVCMYIEALDKYACNCVVGYIGERCQYRDLKWWELRHAGHGQQQKVIVVAVCVVVLVMLLLLSLWGAHYYRTQKLLSKNPKNPYEESSRDVRSRRPADTEDGMSSCPQPWFVVIKEHQDLKNGGQPVAGEDGQAADGSMQPTSWRQEPQLCGMGTEQGCWIPVSSDKGSCPQVMERSFHMPSYGTQTLEGGVEKPHSLLSANPLWQQRALDPPHQMELTQ
modifications: Pro-epidermal growth factor
In the case of B1, the “tyrosine phosphorylation of recombinant Flag-RAI-3 protein” value is listed as “does not appear to cause tyrosine phosphorylation”.

(Values after patent US7517652B2, “Methods of diagnosing tumors using the G-protein coupled receptor (GPCR), RAI-3” (Bristol-Myers Squibb Company, priority 2002, dated 2009).)
